{"source": "paper PMC5626683", "target": "GST-MreC from Helicobacter pylori (residues L37-N248), wild type (H. pylori) (UniProt B5Z916)", "assay": "ITC; iTC200, 20 °C; PBP2 (3 μL of 160.4 μM) titrated into the cell with GST-tagged MreC (25 μM)"}
{"substance": "PBP2 from Helicobacter pylori (residues L38-L588, lacking the TM helix), His6-tagged (domain or fragment)", "values": [{"measurement": "Kd", "result": 400, "unit": "nM"}]}
